{
  "source": "patent US20070073040A1",
  "about": "“Anti-obesity polypeptides” (Yonsei University, priority 2001, published 2007)",
  "key": {"[1]": {"conditions": "clinical test, cited from earlier work"}, "[2]": {"tested_on": "adipose tissue", "assay": "Autopsy and pathological examination of experimental rabbits", "assay_type": "in vivo, rabbit", "conditions": "polypeptide-Adjuvant mixture injected three times into hypoderm every two weeks, versus saline-Adjuvant", "experimental": "In FIG. 3A, arrows indicate distribution of adipose tissue in various organs in the test rabbit that SynLeptin-2 polypeptide-Adjuvant mixture was injected three times into the hypoderm every two weeks. In FIG. 3B, arrows indicate distribution of adipose tissue in various organs injected with saline-Adjuvant mixture three times into the hypoderm every two weeks.\nWe analyzed the reasons for the decrease in body weight by autopsy and pathological examinations. […] When the rabbits were sacrificed and autopsy was carried out, no pathological abnormali in their organs was observed. However, remarkable reduction of fat mass not only in abdominal and subcutaneous adipose tissues but also tissues surrounding various organs was evident."}, "[3]": {"assay": "Body weight of ZDF rats with nonfunctional Leptin receptor treated with SynLeptin polypeptides", "assay_type": "in vivo, rat", "conditions": "12-week-old ZDF rats; injected two times every two weeks into hypoderm; after about 30 days; saline control 8.5% increase", "experimental": "FIG. 2 illustrates weigh loss when SynLeptin-1 or 2 polypeptide was injected two times every two weeks into the hypoderm of 12-week-old ZFD rats with non-functional Leptin receptor.\n(§1) 4 white rabbits with 1.2 kg body weight were divided into a control group and an experimental group having two rabbits, respectively. The purified SynLeptin-1 or -2 protein (500-700 μg or saline was mixed with Adjuvant 2 ml (Sigma), and then injected into 4 different parts of the rabbit hypoderm. After 2 weeks, an equivalent amount of the protein-Adjuvant mixture was injected, and then third injection was performed after 2 weeks. Thereafter, body weight loss was measured after 10 days. The result was as follows. The body weight of the experimental group treated with SynLeptin-1 was 1.8 kg and 2.08 kg, respectively (average 1.94 kg), while the body weight of the control group was 2.5 kg and 2.45 kg, respectively (average 2.48 kg). […] Also we treated the ZDF rats with nonfunctional Leptin receptor gene with SynLeptin-1 or -2 polypeptides for 30 days (FIG. 2)."}, "[4]": {"assay": "Body weight of white rabbits after subcutaneous injection of protein-Adjuvant mixture", "assay_type": "in vivo, rabbit", "conditions": "10 days after third injection", "experimental": "as §1"}},
  "note": "“And” between values parts separate entries of the source, which are not always exact repeats. Identical values can stand only once.",
  "data": [
    {"molecule": "Leptin: 16 kDa ob polypeptide hormone synthesized in adipose tissue, regulating body weight", "values": [
      {"measurement": "weight response upon Leptin treatment (other obese people)", "setting": "[1]; other obese people", "value": "did not lost weight"},
      {"measurement": "body weight lost", "setting": "[1]; some obese people", "value": 7.1, "unit": "kg"}
    ]},
    {"molecule": "SynLeptin-2: Tat polypeptide of 86 amino acids from N-terminus of Tat, expressed from pGEX4T-3-SynLeptin-2 (protein, 86 amino acid Tat mutant, Tat polypeptide of 86 amino acids from N-terminus of Tat, expressed from pGEX4T-3-SynLeptin-2) MEPVDPRLEPWKHPGSQPKTACTNCYCKKCCFHCQVCFMTKALGISYGRKKRRQRRRAHQNSQTHQASLSKQPTSQSRGDPTGPKE", "values": [
      {"measurement": "fat / adipose tissue at autopsy", "setting": "[2]", "value": "markedly reduced fat in various tissues including adipose tissue"},
      {"measurement": "weight loss (decrease of body weight)", "setting": "[3]", "value": 4.3, "unit": "%"}
    ]},
    {"molecule": "SynLeptin-1: Tat polypeptide fragment, 71 (b9: 72) amino acids from N-terminus of Tat, expressed from pGEX4T-3-SynLeptin-1 (protein, 71 amino acid Tat mutant) MEPVNPSLEPWKHPGSQPKTACTNCYCAKCCFHCQVCFITKALGISYGRAKRRQRRRPPQGSQTHQVSLSK", "values": [
      {"measurement": "body weight of individual rabbit of the experimental group", "setting": "[4]; rabbits, starting body weight 1.2 kg, control 2.5 and 2.45 kg", "value": "1.8 kg and 2.08 kg"},
      {"measurement": "average body weight of the experimental group", "setting": "[4]; two rabbits, control average 2.48 kg", "value": 1.94, "unit": "kg"},
      {"measurement": "weight increase", "setting": "[3]", "value": 3.5, "unit": "%"}
    ]}
  ]
}
